# The nanobody polyreactivity screen of Harvey et al. (2022)
# Test: yeast display, Sf9 membrane polyspecificity reagent, FACS + sequencing; frameworks hold sequencing errors
# Method in brief: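 Synthetic nanobody libraries on Saccharomyces cerevisiae BJ5465 were galactose-induced for 36–48 hours, stained 1 hour at 4 °C with 10% biotinylated, detergent-solubilized Sf9 membrane reagent and enriched on streptavidin microbeads. FACS then separated cells into low and high (top ~1%) gates by anti-HA (expression) and streptavidin (reagent binding) fluorescence. Genes were colony-PCR amplified, MiSeq 2 × 250 sequenced and CDR-length filtered. A clone's polyreactivity label is that of its gate of origin.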
row,Sequence,polyreactivity (PSR sort gate)
1,QVQLVDSGGGLVQAGGRLRLSSAPTGSTFYVYLMGGYRQAHGKERELVAVIDWLGGSTYYADSVKGRFTISRDNAKNTVYLQLNSLKPEDTAVYYCYKDAQFYYNLPYYKERDWGQGTQVTVSS,low polyreactivity
2,QVQLVDSGGGLVQAGGSHRLSCAASGRIFVAYAMGWYRQAPGKERELVAGISRGGSTYYADSVKGRFTISRDNAKNTVYLQMNSLKPEDTAVYYCATDQRVRRYDYWGQGTQVTVSS,low polyreactivity
3,QVQLVDSGGGLVQAGGSHRLSCAASGSTFRRNAMGWYRQAPGKERELVAAITRGGSTNYADSVKGRFTISRDNAKNTVYLQMNSLNPEDTAVYYCARVYLGAYRERYVYPYDYWGQGTQVTVSS,high polyreactivity
4,QVQLVDSGGGLVQAGGSISLSCAASGRTFFVNAMGWYRQAPGKERELVAAITRRGGITYYADSVKGRFTISRDNAKNTVYLQMNSLKPEDTAVYYCAADRSYYPDTRTTYGYNYWGQGTQVTVSS,low polyreactivity
5,QVQLVDSGGGLVQAGGSLPLSCAASGSILLPYAMGWYRQAPGKERELVAALSQRGGSTYYADSVKGRFTISRDNAKNTVYLQMNSLKPEDTAVYYCNAVGGEHTPSQAFAGYDYWGQGTQVTVSS,low polyreactivity
6,QVQLVDSGGGLVQAGGSLRLICAASGITFRHYAMGWYRTAPGKERELVAAITRRGGSTRYADSVKGRFTISRDNAKNTVYLQMNSLKPEDTAVYYCNAVYWSEGDWSERRDYWGQGTQVTVSS,high polyreactivity
7,QVQLVDSGGGLVQAGGSLRLICAASGRIFYTNAMGWYRQAPGKERELVAAIDYSDSTTYYADSVKRRYTISRDNAKNTVYLQMNSLKPEDTAVYYCAAESYLYTVTFEYWGQGTQVTVSS,high polyreactivity
8,QVQLVDSGGGLVQAGGSLRLICAASGRTFYYYAMGWYRQAPGKERELVAGISSGVSTTYADSVKGRFTISRDNAKNTVYLQLNSLKPEDTAFYYCAARWRPNRAYIGYDYWGQGTQVTVSS,low polyreactivity
9,QVQLVDSGGGLVQAGGSLRLICAASGSTFYHYAMGWYRQAPGKERELVAAISSSGGRTYYADSVKGRFTISRDNAKNTVYLQMNSLKPEDTAVYYCAARAKTSGSIEDYWGQGTQVTVSS,high polyreactivity
10,QVQLVDSGGGLVQAGGSLRLRCAASGITFLGNDMGWYRQAPGKERELVAAISSGSTNYADSVKGRFTISRDNANKTVDLQMNSLKPADPAVYYCAADIRGGLSNYSPKDYDYWGQGTQVTVSS,low polyreactivity
11,QVQLVDSGGGLVQAGGSLRLSCAASGAIFEYYAMAWNRQAPGKERELVAAISWSGGSTYYADSVKGRFTISRDNAKNTVYLQMNSLKPEDTAVYYCAADYYLYQVYTGYDYWGQGTQVNVSS,low polyreactivity
12,QVQLVDSGGGLVQAGGSLRLSCAASGFIFDVYAMGGYRQAPGKERELVAAITSGDGTNYADSVKGRFTISRDNAKNTVYFQMNSLKPEDTAVYYCAADDGVTYRGIIFSYWGQGTQVTVSS,low polyreactivity
13,QVQLVDSGGGLVQAGGSLRLSCAASGFIFPINAMGWYRQAPGKERELVAAITGGGSTSYADSVKGRFTISRDNAKNTVYLQMNSLKPEDTAVYYCATDRLTYTKYGYWGQGTLVTVSS,low polyreactivity
14,QVQLVDSGGGLVQAGGSLRLSCAASGFIFVGYGMGWYRQAPGKERELVAAIDGGGSTYYADSVKGRFTISRDNAKNTVYLQMNSLKPEDTAVYYCNALPAYGWYDYDYWGQGTQVTVSS,low polyreactivity
15,QVQLVDSGGGLVQAGGSLRLSCAASGFNFDQYGLGWYRQAPGKERELVASITSTGSTYYADSVKGRFTISRDNAKNTVYLQMNSLKPEDTAVYYCATDSYDGMDYWGQGTQVTVSS,low polyreactivity
16,QVQLVDSGGGLVQAGGSLRLSCAASGFTFRDYAMGWYRQAPRKERELVAAISRSGDSTYYADSVKGRFTISRDNAKNTVYLQMNSLKPEDTAVYYCNTAGFYWLHYTMDYWGQGTQVTVSS,high polyreactivity
17,QVQLVDSGGGLVQAGGSLRLSCAASGFTFYSYAMGWYRQAPGKERELVASITSGGSTYYADSVKGLFTISRDNGKNTVYLPMNSLNPEYTAVSYCAATRGYSQYGRVRKYGYWGLGTQVTVSS,high polyreactivity
18,QVQLVDSGGGLVQAGGSLRLSCAASGIIFVGYAMGWYRQAPGKERELVAAITYNVGSTYYADSVKGRFTISRDNAKNTVYLQMKSLKPEDTAVYYCNADRYPFFDLLISRYGSNPYDYWGQGTQVTVSS,low polyreactivity
19,QVQLVDSGGGLVQAGGSLRLSCAASGIIFWRYAMGWYRQAPGKERELVASISSSGGRTYYADSVKGRFTISRDNAKNTVYLQMNSLKPEDTAVYYCAARGPYGYDLLYYWGQGTQVTVSS,high polyreactivity
20,QVQLVDSGGGLVQAGGSLRLSCAASGIIFWYYTRGWYRQAPGKERELVASISRGGSTYYADSVKGRFTISRDNAKNTVYLQMNSLKPEDTAVYYCARRPNTGPYGNYDYWGQGTQVTVSS,high polyreactivity

row,Sequence,polyreactivity (PSR sort gate)
1,QVQLVDSGGGLVQAGGSLRLSCAASGIIYRFYAMGWYRQAPAQEREMVAAISSGGSTYYADSVKGRCTISRDTAKNTVYLQINRLKPEDTAVYYCNARVRYKRTGRYGYWGQGTQVTVSS,high polyreactivity
2,QVQLVDSGGGLVQAGGSLRLSCAASGINFASYAMGWYRQAPGKEMEIVAAISRSGSSTYYADSVKGRFTISRDNAKYTVYLQMNSLKPEDTAVYYCARARSGGSHREYYWGQGTQVTVSS,high polyreactivity
3,QVQLVDSGGGLVQAGGSLRLSCAASGITFGRNTMGGYRQAPGKERELVAAIDSGGNTYADSVKGRFTISRDNAKNSVYLQMNSLKPEDTAVYYCAVDGGEFSSYGYWGQGTQVTVSW,low polyreactivity
4,QVQLVDSGGGLVQAGGSLRLSCAASGITFRRYAMGWYRQAPGKERELVASITRNGGITYYADSVKGRFTISRDNAKNTVYLQMNSLKPEDTAVYYCNAVFYYPYPADRRDYWGQGTQVTVSS,high polyreactivity
5,QVQLVDSGGGLVQAGGSLRLSCAASGITFWSYAMGWYRPAPGKERELVAGISRRGGSTYYADSVKGRFTISRDNAKNTVYLQMNSLKPEDTAVYYCAARAYPTPVRSFLYTDIVYYWGQGTQVTVSS,high polyreactivity
6,QVQLVDSGGGLVQAGGSLRLSCAASGITFYFNAMGWYRQAPGKERELVAAITRGGRTNYADSVKGRFTISRDNAKNTVYLQMNSLKPEDTAFYYCAAYIYRGRETNGPDYYYWGQGTQVTVSS,low polyreactivity
7,QVQLVDSGGGLVQAGGSLRLSCAASGLIFDSYDMGWYRQEPGKERELVSPIRRNGGSTYYADSVKGRFTISRDNAMYTVYLQMNSLKPEDTAVYYCAVDNSGYCGVYWVKMDYWGQGSQVTVSS,low polyreactivity
8,QVQLVDSGGGLVQAGGSLRLSCAASGLTFQWYTMGWYRPAPGKERELVAAISSRGGSTYYADSVKGRFTISRDNAKNTVYLQMNSLKPEDTAVYYCAAVSGWEHRYDYWGQGTLVTVSS,high polyreactivity
9,QVQLVDSGGGLVQAGGSLRLSCAASGLTFQYKAMGRYRHAPGKERELVATISQSGGSTYYADSVKGRFTISRDNAKNTVYLQMNSLKPEDTAVYYCAADGAWGTASYSVAFDYWGQGTQVTVSS,low polyreactivity
10,QVQLVDSGGGLVQAGGSLRLSCAASGLTFYYYAMGWYRQAPGKESELVSAISATGGRTYYSDSVKGRFTISRDNAKNTVYLQMNSLKPEDTAVYYCAADTPYLRRRLGMDYWGQGTQVTVSS,high polyreactivity
11,QVQLVDSGGGLVQAGGSLRLSCAASGLTIYAYAMGWYRQAPGKERELVAAISSGGSTSYADSVKGRFTISRDNAKNTVYLQMNSLKPEDTAVYYCAARPKSSRFFGWGYNYWGQGTQVTVSS,high polyreactivity
12,QVQLVDSGGGLVQAGGSLRLSCAASGNIICGYARGRNIQAPGKEREMVASISQRGGITYYADSVKGRFTISRDKAKNTVYLEMNSLKAEDTEVYYCAKRGTYGWYGAYDYWGEGTQVTVSS,low polyreactivity
13,QVQLVDSGGGLVQAGGSLRLSCAASGNTFIYYAMGWYRQAPGKERELVAAITWSGGSTYYADSVKGRFTISRDNAKNTVYLQMNSLKPEDTAVYYCAKFTHNYYYWGQGTQVTVSS,high polyreactivity
14,QVQLVDSGGGLVQAGGSLRLSCAASGPIFKRYAMGWYRQAPGKERELVASITTSGDSTYYADSVKGRFTISRDNAKNTVYLQMNSLKPEDTAVYYCAGRSYSGRRYDYWGQGTQVTVSS,high polyreactivity
15,QVQLVDSGGGLVQAGGSLRLSCAASGRIFDYNAMGWYRQAPGKERELVAVITGTGGTTYYADSVKGRFTISRDNAKNTVYLQMNSVKPEDTAVYYCNADDYRLTSLYIPERYDYWGQGTQLTVSS,low polyreactivity
16,QVQLVDSGGGLVQAGGSLRLSCAASGRIFHGYAMGWYRLAPGKERELVAAISWRGDSTYYADSVKGRFTISRDNAKNTVYLQMNSLKPEDTAVYYCAAASRSWRDDYWGQGTQVTVSS,low polyreactivity
17,QVQLVDSGGGLVQAGGSLRLSCAASGRIFLVNALGGSRQAPGKERELVAAISYRSGRTYSADSVKGRFTISRDTAKNTVYLQMNSLIPEDTAVYYCAAYTNVADMDYWGQGTQVTVSS,high polyreactivity
18,QVQLVDSGGGLVQAGGSLRLSCAASGRIFYVYAMGWYRQATGKERQLVASIRYSGATTYYADSVKGRFTISLDNAKNTVYLQMNSLKPEDTAVYYCAADTLGTPAYRYEYWGQGTQVTVSS,low polyreactivity
19,QVQLVDSGGGLVQAGGSLRLSCAASGRTFDGYAMGWYRQAPGKERELVAAISRTGGSTYYADSVKGRFTISRENAKNTVYLLMTSLKPEDTAVYYCNAVTLSSTYGGHDYWGQGTQVTVSS,high polyreactivity
20,QVQLVDSGGGLVQAGGSLRLSCAASGRTFGIYAMGWYRQAPGKERELVAAIRWRDGSTYYADSVKGRFTISRDNAKNTVYLQMYSLKPEDNAVYYCAATSLVYVRGSYWKYGYWGQGTQVTVSS,high polyreactivity
